2 molecules from article PMC4575486, “GDF-5 can act as a context-dependent BMP-2 antagonist” (BMC Biology, 2015) can be followed below.

Assay [1] deals with T1, extracellular domain of human BMPR-IA (human, UniProt P36894 24-152).
Assay [2] deals with T1, extracellular domain of human BMPR-IA. Briefly: SPR; quality control of the recombinant ligands, as previously described (ref. 17).
The target is the same in assay [3]. Briefly: cell-based or functional assay.

Like-named read-outs stand apart in the source and are kept apart here.

T1 sequence (P36894 24-152): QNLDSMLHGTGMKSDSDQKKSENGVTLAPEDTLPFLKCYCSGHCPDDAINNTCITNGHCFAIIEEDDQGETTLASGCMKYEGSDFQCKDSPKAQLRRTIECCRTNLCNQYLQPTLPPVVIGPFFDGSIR

In turn, “GDF-5 R57A (growth and differentiation factor 5, variant R57A) (ligand)” came in with an inhibition of ALP expression induced by 20 nM BMP-2 in C2C12 cells by increasing concentrations of GDF-5 R57A, IC50 in assay [1] of 5 nM. The dissociation constant Kd in assay [2] amounted to 1.6 nM.

B1: human GDF-5 (growth and differentiation factor 5), wild type (ligand, UniProt P43026 382-501, looked up)
chain: APLATRQGKRPSKNLKARCSRKALHVNFKDMGWDDWIIAPLEYEAFHCEGLCEFPLRSHLEPTNHAVIQTLMNSMDPESTPPTCCVPTRLSPISILFIDSANNVVYKQYEDMVVESCGCR
notes: human growth and differentiation factor 5, recombinant from E. coli; Homodimer; also called wild-type GDF-5; GDF-5WT; source: E. coli, purified (as previously described)
As to B1, in assay [3], the “SMAD-1 phosphorylation in ATDC5 and C2C12 cells; concentration needed for phospho-SMAD levels comparable to BMP-2” value was ~10 fold; the “bone formation in the rat orthotopic (calvaria) model; amount of protein needed for the same ossified surface area as BMP-2 or GDF-5 R57A” value is ~20 fold; the “inhibition of ALP expression induced by 20 nM BMP-2 in C2C12 cells by increasing concentrations of wild-type GDF-5, IC50” value was 70 nM. In assay [2] (both partners purified), the equilibrium dissociation constant (Kd) was 20 nM.
